Experimental data from patent publication US20250250357A1.
Residue numbers refer to the chain shown, from its start.

B1: S009-F8-12.13 (antibody, human IgG1, kappa, V domains shown)
VH: QVQLQQPGAELVKPGASVKLSCKASGYTFTSYWMHWVKQRPGQGLEWIGMIHPNSGSTNYNEKFKSKATLTVDKSSSTAYMQLSSLTSEDSAVYYCARRTPIITLVGHWYFDVWGTGTTVTVSS
VL: DIVMTQSHKFMSTSVGDRVSITCKASQDVGTAVAWYQQKPGQSPKLLIYWASTRHTGVPDRFTGSGSGTDFTLTISNVQSEDLADYFCQQYSSYPLTFGAGTKLELKR
B2: S009-F8-15.19 (antibody, human IgG1, kappa, V domains shown)
VH: EFQLQQSGPELVKPGASVKISCKASGYSFTDYNMNWVKQSNGKSLEWIGIINPYYGTTSNNQNFKGKATLTVDQSSSTAYMQLNSLTSDDSAVYYCARWLRRDAMDYWGQGTSVTVSS
VL: B1 VL with Q6P, T22A, T31S, A32S, A51T, L96W, A100G, L106I
B3: S009-F8-27.1 (antibody, human IgG1, kappa, V domains shown)
VH: EVQLVESGGGLVKPGGSLKLSCAASGFTFSSYAMSWVRQTPEKRLEWVATISDGGNYTYYPDNVKGRFTISRDNAKNNLYLQMSHLKSEDTAMYYCAGDRGYPYAMDSWGQGTSVTVSS
VL: NIMMTQSPSSLAVSAGEKVTMSCKSSQSVLYSSNQKNYLAWYQQKPGQSPKLLIYWASTRESGVPDRFTGSGSGTDFTLTISNVHAEDLAVYYCHQYLSSLTFGAGTKLELKR
B4: S009-F8-31.22 (antibody, human IgG1, kappa, V domains shown)
VH: EVQLVESGGDLVKPGGSLKLSCAASGFTFSTYGMSWVRQTPDKRLEWVATISSGGSYTYYPDSLKGRFTISRDNAKNTLYLQMSSLKSEDTAMYYCARHEGYYYGKDYWGQGTTLTVSS
VL: DIVLTQSPATLSVTPGDSVSLSCRASHSISNNLHWYQQKSHESPRLLIKYASQSISGIPSKFSGSGSGTDFTLSINSVETEDFGMYFCQQTNSWPLTFGAGTKLELKR
B5: S009-F8-33.12 (antibody, human IgG1, kappa, V domains shown)
VH: EVQLQQSGAELVKPGASVKLSCTASAFNIKDYYMHWVKQRTEQGLEWIGRIDPEDGETKYAPKFQGKATITADTSSNTAYLQLSSLTSEDTAVYYCASGSGTGAMDYWGQGTSVTVSS
VL: DIVMTQSQKFMSTSVGDRVSITCKASQNVRTAVGWYQQKPGQSPKALIYLASNRHTGVPDRFTGSGSGTDFTLTISNVQSEDLADYFCLQHWNSPYTFGGGTKLVIKR
B6: S009-F8-22.23 (antibody, human IgG1, kappa, V domains shown)
VH: QVQLKQSGPGLVQPSQSLSITCTVSGFSLFSYGVHWVRQSPGKGLEWLGVIWSGGSTDYNAAFISRLSISKDNSKSQVFFKMNSLQADDTAMYYCARNGGSMITTLYYAMDYWGQGTSVTVSS
VL: DVVMTQTPLSLPVSLGDQASISCRSSQSLVHSYGNTYLHWYLQKPGQSPKLLIYKVSNRFSGVPDRFSGSGSGTDFTLKISRVEAEDLGVYFCSQSTHIPFTFGGGTKLEIKR
B7: S009-F8-32.3 (antibody, human IgG1, kappa, V domains shown)
VH: QVQLKESGPGLVAPSQSLSITCTVSGFSLSSYAISWVRQPPGKGLEWLGVIWTGGGTNYNSALKSRLSISKDNSKSQVFLKMNSLQTDDTARFYCARNNYGRLDYAMDYWGQGTSVTVSS
VL: B6 VL with S32G, Y33N, A85T, I99V, G105S
B8: S009-F8-4.5 (antibody, human IgG1, kappa, V domains shown)
VH: QVQLQQPGAELVKPGASVKLSCKASGYTFTIYWMHWVKQRPGQGLEWIGMIHPNSGNTNYNEKFKSKATLTVDKSSSTAYMQLSSLTSEDSAVYYCSLIHWYFDVWGTGTTVTVSS
VL: QIVLTQSPAIMSASPGEKVTMTCSASSSVSYMYWYQQKPGSSPRLLIYDTSNLASGVPVRFSGSGSGTSYSLTISRMEAEDAATYYCQQWSSYPLTFGAGTKLELKR
B9: S009-F8-13.8 (antibody, human IgG1, kappa, V domains shown)
VH: EFQLQQSGPELVKPGASVKISCKASGYSFTDYNMNWVKQTNGKSLEWIGIINPNYGTSSYNQKFKGKATLTVDQSSSTAYMQLNSLTSEDSAVYYCARVGRDNSGFDYWGQGTTLTVSS
VL: B8 VL with L95P, A99S, K102E, L105I
B10: S009-F8-29.1 (antibody, human IgG1, kappa, V domains shown)
VH: QVQLQQSGAELARPGASVKMSCKASGYTFISYTMHWVKQRPGQGLEWIGYINPSSGYTKYNQKFKDKATLTADKSSSTAYMQLNSLTSEDSAVYYCARYYSNPDYYAMDYWGQGTSVTVSS
VL: B8 VL with M21I, Y33H, Y35F, S41T, R44K, L46W, D49S, V59A, W90R, A99G
B11: S009-F8-18.9 (antibody, human IgG1, kappa, V domains shown)
VH: EFQLQQSGPELVKPGASVKISCKASGYSFTDYNMNWVKQSNGKSLEWIGIINPNYGTTSYNQKFKGRATLTVDQSSSTAYVQLNSLTSEDSAVYYCARGGYDNEAMDYWGQGTSVTVSS
VL: QIVLTQSPAIMSASPGEKVTMTCSASSSVSYMHWYQQKSGTSPKRWIYDTSKLASGVPARFSGSGSGTSYSLTISSMEAEDAATYYCQQWSSNPPTFGAGTKLELKR
B12: S009-F8-19.21 (antibody, human IgG1, kappa, V domains shown)
VH: B11 VH with A24T, I50V, S59G, R67K, V81M, N103G, Q111H
VL: B11 VL with S30N, N93Y, A99G, L105I
B13: S009-F8-9.16 (antibody, human IgG1, kappa, V domains shown)
VH: EVHLQQSGPVLVKPGASVKMSCKASGYTFTDYFMNWVKQSHGKSLEWIGVINPHNGYVNYNQKFQGRATLTVDKSSSTVYMELNSLTSEDSAVYHCARSAESAWFAYWGQRTLVTVSA
VL: DVLMTQTPLSLPVSLGDQVSISCRSSQSIVHVKGNTYLEWYLQKPGQSPELLIYKVSNRFSGVPDRFSGGGSGTDFTLKISRVEPEDLGVYYCFQGSHLPYTFGGGTKLEIKR
B14: S009-F8-5.15 (antibody, human IgG1, kappa, V domains shown)
VH: QVQLQQPGTELVKPGASVKLSCKASGYTFTSYWMHWVKQRPGQGLEWIGHSNPSNGGTNYNEKFKSKATLTVDKSSSTAYMQLSSLTSEDSAVYYCARWVRGSNYEYFDVWGTGTTVTVSS
VL: DIVMTQSQKFMSTTVGDRVSIICKASQNVGSAVAWCQQKPGQSPKLLIYSASNRYTGVPDRFTGSGSGTDFTLTISNMQSEDLADYFCQQYSSYPLTFAGGTKLEIKR
B15: S009-F8-8.22 (antibody, human IgG1, kappa, V domains shown)
VH: EVQLQQSGPELVKPGASVKMSCKASGYTFTDYIIHWVKQSHGKSLEWIAYIFPNNGGTGYNQKFRGKATLTVNKSSSTAYMELRSLTSEDSAVYYCARWRLRQYFDVWGTGTTVTVSS
VL: B14 VL with T14I, I22T, S31T, C36Y, A99G
B16: S009-F8-24.14 (antibody, human IgG1, kappa, V domains shown)
VH: EFQLQQSGPELVKPGASVKISCKASGYSFTDYNMNWVKLSNGKSLEWIGVIIPNYGTSSYNQKFKGKATLTVDQSSSTAYMQLNSLTSEDSAVYYCARWDNYYGSSLDYWGQGTTLTVSS
VL: B14 VL with I22T, S31T, C36Y, T72I, A99G, G100A, I106L
B17: S009-F8-36.12 (antibody, human IgG1, kappa, V domains shown)
VH: EVQLQQSGPELVKPGASVKISCKASGYTFTDYYMNWVKQSHGKSLEWIGDINPNNGGTSYNQKFKGKATLTVDKSSSTAYMELRSLTSEDSAVYYCASWGYGSSSRGYFDYWGQGTTLTVSS
VL: QIVLSQSPAILSASPGEKVTMTCRASSSVSYMHWYQQKPGSSPKPWIYATSNLASGVPARFSGSGSGTSYSLTISRVEAEDAATYYCQQWSSNPWTFGGGTKLEIKR
B18: F3.80.22-H1 (scFv, not shown: small tags and cut ends)
scFv: DIVMTQTPLSLPVTPGEPASISCRSSQSLEHNNGNTYLHWFLQKPGQSPQLLIYKVSNRFSGVPDRFSGSGSGTDFTLKISRVEAEDVGVYYCSQSTHVPFTFGQGTKLEIKGGGGSGGGGSGGGGSEVQLVQSGAEVKKPGATVKISCKVSGYTFTDYEIHWVQQAPGKGLEWMGAFDPEIGGSAYNQKFKDRVTITADKSTDTAYMELSSLRSEDTAVYYCTDYYGSSSGYFDVWGQGTTVTVSS
B19: F3.80.22-H3 (scFv, not shown: small tags and cut ends)
scFv: B18 scFv with V151A, D204S, Q239T
B20: F3.80.22-H7 (scFv, not shown: small tags and cut ends)
scFv: B18 scFv with N33D, V151A, D204S, Q239T
B21: F3.80.22-H2 (scFv, not shown: small tags and cut ends)
scFv: B18 scFv with V151A, D204S
B22: F3.80.22-H8 (scFv, not shown: small tags and cut ends)
scFv: B18 scFv with N33D, V151A, T203S, D204S, Q239T
B23: F3.80.22-H6 (scFv, not shown: small tags and cut ends)
scFv: B18 scFv with N33D, V151A, D204S
B24: F3.80.22-H4 (scFv, not shown: small tags and cut ends)
scFv: B18 scFv with V151A, T203S, D204S, Q239T
B25: F3.80.22-H17 (scFv, not shown: small tags and cut ends)
scFv: EVQLVQSGAEVKKPGATVKISCKVSGYTFTDYEIHWVQQAPGKGLEWMGAFDPEIGGSAYNQKFKDRVTITADKSTDTAYMELSSLRSEDTAVYYCTDYYGSSSGYFDVWGQGTTVTVSSGGGGSGGGGSGGGGSDIVMTQTPLSLPVTPGEPASISCRSSQSLEHNDGNTYLHWFLQKPGQSPQLLIYKVSNRFSGVPDRFSGSGSGTDFTLKISRVEAEDVGVYYCSQSTHVPFTFGQGTKLEIK

target: monkey MSLN full-length protein expressed on HEK293T cells (HEK293T-monkey MSLN) (monkey); assay: FACS on HEK293T-monkey MSLN cells

| EC50 [nM] | Maximum mean fluorescence intensity | Binder |
| --- | --- | --- |
| 0.08 | 21500 | B1 |
| 0.39 | 28200 | B2 |
| 2.05 | 31300 | B3 |
| – | 3390 | B4 |
| 0.64 | 106000 | B5 |
| 1.09 | 114000 | B6 |
| 0.69 | 112000 | B7 |
| 0.64 | 35000 | B8 |
| 0.15 | 20500 | B9 |
| – | 80 | B10 |
| 0.81 | 24900 | B11 |
| 0.3 | 24900 | B12 |
| – | 348 | B13 |
| 0.18 | 20200 | B14 |
| 0.36 | 112000 | B15 |
| 0.52 | 105000 | B16 |
| – | 173 | B17 |

target: human MSLN on OVCAR3 tumor cells (human) (UniProt Q13421); assay: FACS, OVCAR3 cells
Sequence (Q13421 other isoform, or with tags, fused parts or gaps): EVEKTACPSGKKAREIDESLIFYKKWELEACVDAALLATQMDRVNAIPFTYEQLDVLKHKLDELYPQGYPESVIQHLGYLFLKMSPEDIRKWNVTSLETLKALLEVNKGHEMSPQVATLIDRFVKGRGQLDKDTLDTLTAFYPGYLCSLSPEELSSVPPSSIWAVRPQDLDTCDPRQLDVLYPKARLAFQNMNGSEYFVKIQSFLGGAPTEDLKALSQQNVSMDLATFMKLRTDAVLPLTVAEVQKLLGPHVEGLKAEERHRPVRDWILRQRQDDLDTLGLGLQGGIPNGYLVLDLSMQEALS

| Maximum MFI [MFI] | Binder |
| --- | --- |
| 471 | B18 |
| 502 | B19 |
| 479 | B20 |
| 512 | B21 |
| 502 | B22 |
| 473 | B23 |
| 505 | B24 |
| 456 | B25 |
